Measurements as given in publication PMC3515690 (Nature structural & molecular biology, 2012).
Residue numbers refer to the chain shown, from its start. Names may count otherwise. Like-named read-outs stand apart in the source and are kept apart here. Blank lines part the entries; values can stand above or below the binder they belong to.

Assays:
crystal structure [1] = target: the molecule itself; assay: crystal structure
crystal structure [2] = target: the molecule itself; assay: crystal structure; remark: listed apart in the source
[3] = target: T1, Atg7 with a Gly-Gly-Ser-Gly insertion after Leu291 (S. cerevisiae, UniProt P38862 1-630, Gly-Gly-Ser-Gly insertion after Atg7’s Leu291); assay: cross-linking
T1 sequence (looked up): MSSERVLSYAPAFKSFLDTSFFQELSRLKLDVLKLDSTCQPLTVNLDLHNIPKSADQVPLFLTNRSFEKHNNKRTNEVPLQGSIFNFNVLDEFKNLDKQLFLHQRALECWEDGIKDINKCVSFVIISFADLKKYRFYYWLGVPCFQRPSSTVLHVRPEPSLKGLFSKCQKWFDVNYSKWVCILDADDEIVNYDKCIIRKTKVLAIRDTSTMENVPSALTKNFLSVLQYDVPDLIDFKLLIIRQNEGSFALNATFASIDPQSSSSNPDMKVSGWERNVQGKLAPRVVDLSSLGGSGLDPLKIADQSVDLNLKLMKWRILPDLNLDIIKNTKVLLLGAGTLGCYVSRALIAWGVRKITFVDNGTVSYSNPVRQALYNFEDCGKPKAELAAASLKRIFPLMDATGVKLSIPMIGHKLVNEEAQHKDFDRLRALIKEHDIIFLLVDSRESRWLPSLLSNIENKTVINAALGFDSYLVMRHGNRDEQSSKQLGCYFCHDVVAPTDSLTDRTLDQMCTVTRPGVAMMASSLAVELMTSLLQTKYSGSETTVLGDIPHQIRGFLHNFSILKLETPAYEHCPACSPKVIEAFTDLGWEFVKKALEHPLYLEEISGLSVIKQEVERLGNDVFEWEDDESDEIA

[4] = target: T2, Atg7 with residues 290–294 deleted (S. cerevisiae, UniProt P38862 1-630, deletion of residues 290–294); assay: cross-linking
T2 sequence (looked up): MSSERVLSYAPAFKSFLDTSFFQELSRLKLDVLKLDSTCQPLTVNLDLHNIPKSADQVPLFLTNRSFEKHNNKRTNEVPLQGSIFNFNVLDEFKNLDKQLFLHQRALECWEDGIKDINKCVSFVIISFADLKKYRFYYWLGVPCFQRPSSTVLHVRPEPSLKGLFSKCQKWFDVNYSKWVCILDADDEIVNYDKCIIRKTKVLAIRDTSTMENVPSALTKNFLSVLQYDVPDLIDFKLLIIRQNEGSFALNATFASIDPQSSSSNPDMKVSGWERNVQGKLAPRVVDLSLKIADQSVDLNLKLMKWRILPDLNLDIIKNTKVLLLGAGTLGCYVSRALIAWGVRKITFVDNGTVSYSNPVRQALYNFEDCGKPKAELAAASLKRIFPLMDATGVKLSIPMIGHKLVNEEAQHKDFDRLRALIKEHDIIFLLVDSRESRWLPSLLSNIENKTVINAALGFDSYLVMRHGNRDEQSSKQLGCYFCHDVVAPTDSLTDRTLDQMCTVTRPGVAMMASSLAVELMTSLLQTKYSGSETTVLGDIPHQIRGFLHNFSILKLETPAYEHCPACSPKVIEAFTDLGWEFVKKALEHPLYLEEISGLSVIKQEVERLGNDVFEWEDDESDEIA

Atg7 P283D = target: T3, Atg7 P283D (S. cerevisiae, UniProt P38862 1-630, P283D); assay: cross-linking
T3 sequence (looked up): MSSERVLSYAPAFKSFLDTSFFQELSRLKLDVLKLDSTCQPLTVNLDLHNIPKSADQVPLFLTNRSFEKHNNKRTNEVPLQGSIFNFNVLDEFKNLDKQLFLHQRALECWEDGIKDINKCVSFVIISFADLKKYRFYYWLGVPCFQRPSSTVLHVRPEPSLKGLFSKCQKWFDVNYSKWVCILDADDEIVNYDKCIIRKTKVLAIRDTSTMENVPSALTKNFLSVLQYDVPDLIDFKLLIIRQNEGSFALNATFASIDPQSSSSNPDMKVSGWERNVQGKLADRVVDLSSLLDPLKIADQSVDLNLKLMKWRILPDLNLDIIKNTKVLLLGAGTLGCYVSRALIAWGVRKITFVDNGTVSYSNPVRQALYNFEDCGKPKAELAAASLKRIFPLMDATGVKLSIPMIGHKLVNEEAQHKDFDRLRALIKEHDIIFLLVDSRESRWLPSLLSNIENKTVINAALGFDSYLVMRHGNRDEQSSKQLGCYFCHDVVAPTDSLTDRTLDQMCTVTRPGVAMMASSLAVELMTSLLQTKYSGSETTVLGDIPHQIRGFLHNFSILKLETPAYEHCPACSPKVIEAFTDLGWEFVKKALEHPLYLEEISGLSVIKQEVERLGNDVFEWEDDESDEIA

B1: Atg7 (residues 1–613) (enzyme, S. cerevisiae, UniProt P38862 1-613, looked up)
chain: MSSERVLSYAPAFKSFLDTSFFQELSRLKLDVLKLDSTCQPLTVNLDLHNIPKSADQVPLFLTNRSFEKHNNKRTNEVPLQGSIFNFNVLDEFKNLDKQLFLHQRALECWEDGIKDINKCVSFVIISFADLKKYRFYYWLGVPCFQRPSSTVLHVRPEPSLKGLFSKCQKWFDVNYSKWVCILDADDEIVNYDKCIIRKTKVLAIRDTSTMENVPSALTKNFLSVLQYDVPDLIDFKLLIIRQNEGSFALNATFASIDPQSSSSNPDMKVSGWERNVQGKLAPRVVDLSSLLDPLKIADQSVDLNLKLMKWRILPDLNLDIIKNTKVLLLGAGTLGCYVSRALIAWGVRKITFVDNGTVSYSNPVRQALYNFEDCGKPKAELAAASLKRIFPLMDATGVKLSIPMIGHKLVNEEAQHKDFDRLRALIKEHDIIFLLVDSRESRWLPSLLSNIENKTVINAALGFDSYLVMRHGNRDEQSSKQLGCYFCHDVVAPTDSLTDRTLDQMCTVTRPGVAMMASSLAVELMTSLLQTKYSGSETTVLGDIPHQIRGFLHNFSILKLETPAYEHCPACSPKVIEAFTDLGWEFVKKALEHPLYLEEISGLSVIKQEVER
modifications: catalytic Cys507 linked through bismaleimidoethane (BMOE) to Atg3 Cys234
- stoichiometry N (crystal structure [1]): 2

B2: Atg7(1–613 C39S C195S C375A) (enzyme, S. cerevisiae, UniProt P38862 1-613, looked up)
chain: B1 chain with C39S, C195S, C375A
modifications: catalytic Cys507 linked through bismaleimidoethane (BMOE) to Atg10 Cys133
- stoichiometry N (crystal structure [2]): 2

- binding result [3]: binds
- binding result [4]: binds
- binding result (Atg7 P283D): binds
B3: Atg10 (Cys133only, with C26A and C137A) (enzyme, S. cerevisiae, UniProt Q07879 1-167, looked up)
chain: MIPYQEWHSQLQSLYDSQIFHNWALAQDVHLNDEKDGLLLRLIPTRQLQKNTERIENKLLNHIELYLTYSKVYNEPLLLLRIWEEKSIDGIPMTKLMLPTDIESLLDVQGKFQLGLDTIINLEGSVWYSFHPCDTSAIVGDQAEFMSTYLRRWVSIFIFSWLGYEDS
modifications: Cys133 reacted with bismaleimidoethane (BMOE)
